According to patent US6537785:

Legend:
RNAse B = RNAse B (UniProt P61823)
uteroferrin = uteroferrin (UniProt P09889)
UniProt P09889, sequence (P09889 22-340): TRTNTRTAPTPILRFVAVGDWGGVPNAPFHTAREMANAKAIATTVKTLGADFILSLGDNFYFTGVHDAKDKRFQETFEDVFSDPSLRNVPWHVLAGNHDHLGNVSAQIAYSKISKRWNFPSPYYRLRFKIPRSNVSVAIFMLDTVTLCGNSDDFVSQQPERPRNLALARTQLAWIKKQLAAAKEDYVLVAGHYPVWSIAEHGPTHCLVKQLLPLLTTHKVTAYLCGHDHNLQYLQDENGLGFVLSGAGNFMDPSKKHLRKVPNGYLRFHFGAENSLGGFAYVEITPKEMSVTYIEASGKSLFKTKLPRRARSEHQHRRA

UniProt P61823, sequence (P61823 27-150): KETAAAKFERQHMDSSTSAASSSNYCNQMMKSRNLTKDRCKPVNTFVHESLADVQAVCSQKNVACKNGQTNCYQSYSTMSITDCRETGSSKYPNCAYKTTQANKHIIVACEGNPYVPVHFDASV

**Q.** “bovine GlcNAc-phosphotransferase (UDP-N-acetylglucosamine: lysosomal enzyme N-Acetylglucosamine-1-phosphotransferase)” was tested. Which “Km (transfer of GlcNAc-1-P to glycoprotein acceptor)” value (RNAse B) did it give?
**A.** the Km was not reached at the solubility limit of the protein (at 600 µM)

**Q.** What about the “Km (transfer of GlcNAc-1-P to glycoprotein acceptor)” value (cathepsin D) of the same substance?
**A.** Kms below 20 µM

**Q.** What about the “Km (transfer of GlcNAc-1-P to glycoprotein acceptor)” value (uteroferrin) of the same substance?
**A.** Kms below 20 µM
